Data taken from article PMC5228287 (Food chemistry, 2016).
One block for each molecule: values may come before it.

How the values were obtained:
pancreatic lipase = target: T1, pancreatic lipase (Sus scrofa, UniProt P00591); assay: 4-NPB hydrolysis assay; assay type: biochemical
T1 sequence (P00591 1-450): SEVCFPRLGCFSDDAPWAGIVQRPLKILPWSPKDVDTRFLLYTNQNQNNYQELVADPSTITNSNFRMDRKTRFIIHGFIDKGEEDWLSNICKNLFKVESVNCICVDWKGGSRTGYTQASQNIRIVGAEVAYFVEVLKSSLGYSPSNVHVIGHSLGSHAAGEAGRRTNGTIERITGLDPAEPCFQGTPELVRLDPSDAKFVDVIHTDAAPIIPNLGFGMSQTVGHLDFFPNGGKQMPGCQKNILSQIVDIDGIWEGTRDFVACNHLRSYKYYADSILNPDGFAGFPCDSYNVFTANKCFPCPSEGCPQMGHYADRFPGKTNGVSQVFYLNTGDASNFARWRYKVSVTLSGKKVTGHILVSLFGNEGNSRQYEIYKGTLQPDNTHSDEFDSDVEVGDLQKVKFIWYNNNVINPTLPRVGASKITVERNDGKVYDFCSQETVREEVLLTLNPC

[1] = substrate: CCCC(=O)Oc1ccc([N+](=O)[O-])cc1; assay: Michaelis-Menten kinetics; assay type: biochemical, Sus scrofa

IC50 (pancreatic lipase): > 10 µM
Molecule: O=c1c(O)cc([C@H]2Oc3cc(O)cc(O)c3C[C@H]2O)cc2c([C@H]3Oc4cc(O)cc(O)c4C[C@H]3O)cc(O)c(O)c12 [TF, Theaflavin]

B1: pancreatic lipase (Sus scrofa) (protein)
chain: T1 sequence (P00591 1-450)
Km [1]: 149.3 ± 24.2 µM
Vmax [1]: 1.51e-05 ± 1e-06 µmol/min/mg
